Measurements reported in the supplement of paper PMC12764529.
± gives the half width of the 95% confidence interval.

assay: folding stability dG unfold from chymotrypsin proteolysis; higher = more stable
Method in brief: (§1)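 Digests were run with trypsin and chymotrypsin at 11 concentrations in threefold dilutions, plus a no-protease condition, on designed mini-proteins in a PA-tagged cDNA display construct. The mini-proteins were under 80 residues, had no cysteine, and were kept only when AlphaFold2 dimer inter-PAE was above 15. After sequencing, Bayesian fitting of the counts gave K50, from which unfolding free energy was derived against a sequence-predicted unfolded-state K50 and a shared folded-state K50, per protease or combined.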

Sequence	folding stability dG unfold
SAGGSAGGSAMTLKEKAEAIEKEKGVKITVTVTYPDGTVRTLTPEELSSIPPGPYTLSFTTPSAGGSAGGSA [r18_394_JUSTAS]	1.44 ± 0.16 kcal/mol
SAGGSAGGSAGGKLPPGQPIKATIEIYIFMISYDGGEPKIHEFPITIEHTFRLPDPDALSAGGSAGGSAGGS [r10_745_TrROS]	3.9 ± 0.091 kcal/mol
SIKIQVHMWPDGFYVIKVRFPGNGKPIHIPFPPNETAEEQVDKIANNLWKQHGFEPVEVDIYPMPKPLPPSA [r9_1205_TrROS]	2.25 ± 0.034 kcal/mol
SAGMGEAELAAARAANPDRPLVPVETYEIPLPPDVSLEEVEKELREKYPPGKVKVTADPATGTVTITISSAG [r5_694_JUSTAS]	0.969 ± 0.04 kcal/mol
SAGGSAMPVVEIEIEVSEEEAEELVKKLKELFPEVEEVEVERTEDGLRIRVRVKLPPLTEEELKAKSAGGSA [r15_166_TrROS_Hall]	0.987 ± 0.042 kcal/mol
SAGGSAGGSAMYTISYDPSTGTVTVSTPSGTTTTVPVADGPVTLTVTNPDGTTTTITLEGASAGGSAGGSAG [r3_499_JUSTAS]	2.42 ± 0.029 kcal/mol
SAGDWVPIEFTIFFPDPNMTIEEIADSALMNLGLPPEDVTVKIKNIHEQPDPDGRPYYHIEVKIYIPDNSAG [r5_528_TrROS]	3.17 ± 0.13 kcal/mol
SAGMPYIKVKITVIHPDNKEKEAEFVFDLKDGKIDLKPEVIEKALEELGIPKDYEIKIEIVEIKEPDESAGG [r19_287_TrMRF]	2.82 ± 0.16 kcal/mol
SAGGSAGGSAGFNFDIELERDPNGRARVMIKIPLPNGKHYIVIYEFDPDSGKMETKIFPVSAGGSAGGSAGG [r11_107_TrROS]	3.82 ± 0.12 kcal/mol
SAGGSAGGSGSLRLRVRSPEQALEWLRRVLPPDFDLTPEELEELVRFLLATSEVTPDGYLLLRSAGGSAGGS [r12_983_TrMRF]	2.52 ± 0.051 kcal/mol
SAGGSAGGSRIVIHWDPDGMFMIEIRDPGESRTFMFDGPEEAENFADKIEDKLGLPVEVTEIYSAGGSAGGS [r12_783_TrROS]	0.681 ± 0.11 kcal/mol
SAGGSAGGSAGGPAAGEKVVAVGVNPNGETSVREFTVHPDDPLGEVYTEDGTRWYFYPGTSAGGSAGGSAGG [r7_132_TrMRF]	0.338 ± 0.23 kcal/mol
SAGGSAGGSAGGMPILEIDVAGDSPDIAIETAKAIVDELPTYNPENVKVIIKDGKVIIGSAGGSAGGSAGGS [r10_182_TrMRF]	1.66 ± 0.12 kcal/mol
SAGGGAEELAKALAEELEKEGLIKEVEVEVRVRPDGSIEVRIKVKVEPPPPPPPVTVVRDENGEERLLSAGG [r13_957_TrROS_Hall]	0.601 ± 0.12 kcal/mol
SSMYLLTVEITRPDGSVSSKTVPVNFAPGTTIDELLKALNLPKSSLATVTVTATEYSGGPPVTSTHTITLSA [r9_755_JUSTAS]	2.44 ± 0.052 kcal/mol
SAGGVTTPVTFTVPPSLDPEEAAERIAKELEEELKAASNKKVKVTVESVTPLPDGTLRVTVVITTEPSAGGS [r8_156_JUSTAS]	3.14 ± 0.067 kcal/mol
SAGGSPFKKETFEFENVKVEVYRLPGPYALALLEVEVSGEPVYYVAVFKLGPDNKLEVVSFGPVDLSAGGSA [r2_171_TrMRF]	2.85 ± 0.031 kcal/mol
SAGMEEEVEERTLPDGSPVTVTTFTDPATGKRTVFVRYPETGEWEVRDEEGNLIKKYGPVSFEEAKKELSAG [r5_757_JUSTAS]	2.04 ± 0.064 kcal/mol
SAGGSAGGSPEAVVVQTPDGRWLVFLRGPDGSVRPIVVPAGRPEALREVAEELGLTVENLDPVSAGGSAGGS [r12_891_TrMRF]	2.1 ± 0.04 kcal/mol
SAGGKKVKVEKVATFELEDGSKITITTVTLPNGEKLVLIEITNPNGEKKTIVVSYEDLKEVLEALKKSAGGS [r16_588_TrROS_Hall]	2.7 ± 0.16 kcal/mol
MKIVEITKIEKKEDGTITITIKIEPVKKGEKLKIRIIHDGKIYEAEIDAESGTITITLPKNVKELKIYIYPS [r1_428_TrROS_Hall]	3.46 ± 0.12 kcal/mol

Sequence	folding stability dG unfold
SAGGKEVKVIRITMSRDQLRDLIEKLFGKPLSLEEILKKLPPGAKVEIRVEENENGEVTVEIVIVKKPSAGG [r13_869_TrROS_Hall]	4.14 ± 0.11 kcal/mol
SAGGSAGGSAGGSKKIYLIKIEIEKKITYDKKTKELKIEEKIKIKIEPLSEEDLEKLLKSAGGSAGGSAGGS [r4_274_TrROS_Hall]	3.83 ± 0.18 kcal/mol
SAGGSAGGSAGSMVSVEVEESELPPPYRLVTEKVSLPGSETVIEVVRDPATGEVLETKVFASSAGGSAGGSA [r18_507_JUSTAS]	3.33 ± 0.25 kcal/mol
SAGGSAGGSKKIIRFKTKEEAEEALKKAKPGETLEITLPNGEKIEVKVTKVERVDGYYYIEVESAGGSAGGS [r12_907_TrROS_Hall]	3.44 ± 0.077 kcal/mol
SAGGSAGGSAGGMLKITITTPGEEREFVIPTPEPEPPGEEEVAKELGLEDVEVEVEEVLESAGGSAGGSAGG [r11_219_JUSTAS]	-0.0518 ± 0.1 kcal/mol
SAGIPLGPEQLRALAEELAEEFKKKLAEELGLSPEDIKLLSIRRLPDGSIEIELEIPDRTYRYTFPLPDSAG [r5_565_JUSTAS]	3.02 ± 0.042 kcal/mol
SAGMTFPPGMTIEELKELLKKLGIKEVTVTYDKETNTVTVTVTVEGKTITITVTLPAPPVVVKEEGEEKSAG [r5_899_TrROS_Hall]	3 ± 0.1 kcal/mol
SAGGSAGGSAGGSGMSVKREVLEVEEFPGPGRVVRVLERVTLPDGTELLREIEEVIDLLSAGGSAGGSAGGS [r4_50_JUSTAS]	1.12 ± 0.049 kcal/mol
SAGGSAGGSAKAVEFYFPAEEYTVEEIIDRLVKELGVPKENIKLAKVEPLENGELKVIVEIPSAGGSAGGSA [r18_118_TrMRF]	3.21 ± 0.12 kcal/mol
SAGGSAMEIEVTLTDPALLEALIAELPYPVEVSEDPTDPSVTRVTLRTETSAEEVREAVARALGLESAGGSA [r15_118_JUSTAS]	1.27 ± 0.06 kcal/mol
SAGGSAPKNVTIEFPIMAKVPDPKWAIDEARELARKQGFENTEIENIHVNPGDPNYVMIDVKMTIPSAGGSA [r15_183_TrROS]	0.278 ± 0.17 kcal/mol
SAGGSFTSEPNPNAPPDQPETITDPSKGVTTEVYFDTEKGTVSTTTTTTGDGTPTTSTSTTAIDPAAASAGG [r13_851_JUSTAS]	1.37 ± 0.085 kcal/mol
SAGGSAGGSAWIPAKEIAKEIKAEYPPGKEREFRFPEEGWWIRIQVNKEGKPKVKVVPPEDISAGGSAGGSA [r18_61_TrROS]	0.18 ± 0.17 kcal/mol
SAGGSAGGSAGGEKVVVPPPEVELRLERREDGYVRLYARNKDGEWEEVAVFKVSPEELELSAGGSAGGSAGG [r7_659_TrROS_Hall]	3.77 ± 0.13 kcal/mol
SAGGLNFEIIEVSPNHIIARFPDAGYIIMAKIKMEWKPKRDPENGKPRYEPKFKIDIHVIPLKPGQPISAGG [r13_322_TrROS]	4.66 ± 0.17 kcal/mol
SAGSMRITVEITFTSPEGVVKTKTVEVDLSSGSIDLSPEVIEAAKKELGLPPNVTVTLTVVEERPELESAGG [r19_287_JUSTAS]	3.37 ± 0.11 kcal/mol
SAGGSPSTARTVELEFNPNEVTLEKIKELLEELGFKGITSITVESTPDSLTITLTDPNGAPSVVRVISAGGS [r8_86_JUSTAS]	2.66 ± 0.075 kcal/mol
SAGGSAGGSAMVLNVPLEELLKLLGVPKEEVSYKKLEDESYELTLPDGTKVKVIVPKEILESAGGSAGGSAG [r3_477_JUSTAS]	2.86 ± 0.036 kcal/mol
SAGGSAGGSAGIKTESLEEALEYVKKTFPPGTKVEIVVEGDGKPIKITVTVLENGEIKVESAGGSAGGSAGG [r17_69_TrMRF]	3.24 ± 0.036 kcal/mol
SAGGSAGGSEITLVFKTKEEAEKAAEELAKKYNVEVTVEENEETGLYVVTIKLPENGKEITILSAGGSAGGS [r12_635_TrROS_Hall]	2.03 ± 0.059 kcal/mol
SDKIVKLIKKIMEEMGLPITKITDVEPGWIVIRMPNGWKIDIEIDPDDPDVIDIKWQPDPNGGMYMVIPVSA [r9_809_TrROS]	2.65 ± 0.069 kcal/mol

assay: folding stability dG unfold from trypsin proteolysis; higher = more stable
Method in brief: as §1

Sequence	folding stability dG unfold
SAGGSAGGSAMTLKEKAEAIEKEKGVKITVTVTYPDGTVRTLTPEELSSIPPGPYTLSFTTPSAGGSAGGSA [r18_394_JUSTAS]	1.73 ± 0.023 kcal/mol
SAGGSAGGSAGGKLPPGQPIKATIEIYIFMISYDGGEPKIHEFPITIEHTFRLPDPDALSAGGSAGGSAGGS [r10_745_TrROS]	2.14 ± 0.086 kcal/mol
SIKIQVHMWPDGFYVIKVRFPGNGKPIHIPFPPNETAEEQVDKIANNLWKQHGFEPVEVDIYPMPKPLPPSA [r9_1205_TrROS]	1.81 ± 0.088 kcal/mol
SAGMGEAELAAARAANPDRPLVPVETYEIPLPPDVSLEEVEKELREKYPPGKVKVTADPATGTVTITISSAG [r5_694_JUSTAS]	-0.221 ± 0.14 kcal/mol
SAGGSAMPVVEIEIEVSEEEAEELVKKLKELFPEVEEVEVERTEDGLRIRVRVKLPPLTEEELKAKSAGGSA [r15_166_TrROS_Hall]	1.17 ± 0.026 kcal/mol
SAGGSAGGSAMYTISYDPSTGTVTVSTPSGTTTTVPVADGPVTLTVTNPDGTTTTITLEGASAGGSAGGSAG [r3_499_JUSTAS]	2.56 ± 0.093 kcal/mol
SAGDWVPIEFTIFFPDPNMTIEEIADSALMNLGLPPEDVTVKIKNIHEQPDPDGRPYYHIEVKIYIPDNSAG [r5_528_TrROS]	1.7 ± 0.13 kcal/mol
SAGMPYIKVKITVIHPDNKEKEAEFVFDLKDGKIDLKPEVIEKALEELGIPKDYEIKIEIVEIKEPDESAGG [r19_287_TrMRF]	2.5 ± 0.13 kcal/mol
SAGGSAGGSAGFNFDIELERDPNGRARVMIKIPLPNGKHYIVIYEFDPDSGKMETKIFPVSAGGSAGGSAGG [r11_107_TrROS]	3.07 ± 0.086 kcal/mol
SAGGSAGGSGSLRLRVRSPEQALEWLRRVLPPDFDLTPEELEELVRFLLATSEVTPDGYLLLRSAGGSAGGS [r12_983_TrMRF]	1.826 ± 0.018 kcal/mol
SAGGSAGGSRIVIHWDPDGMFMIEIRDPGESRTFMFDGPEEAENFADKIEDKLGLPVEVTEIYSAGGSAGGS [r12_783_TrROS]	0.69 ± 0.024 kcal/mol
SAGGSAGGSAGGPAAGEKVVAVGVNPNGETSVREFTVHPDDPLGEVYTEDGTRWYFYPGTSAGGSAGGSAGG [r7_132_TrMRF]	0.303 ± 0.091 kcal/mol
SAGGSAGGSAGGMPILEIDVAGDSPDIAIETAKAIVDELPTYNPENVKVIIKDGKVIIGSAGGSAGGSAGGS [r10_182_TrMRF]	0.498 ± 0.018 kcal/mol
SAGGGAEELAKALAEELEKEGLIKEVEVEVRVRPDGSIEVRIKVKVEPPPPPPPVTVVRDENGEERLLSAGG [r13_957_TrROS_Hall]	0.972 ± 0.097 kcal/mol
SSMYLLTVEITRPDGSVSSKTVPVNFAPGTTIDELLKALNLPKSSLATVTVTATEYSGGPPVTSTHTITLSA [r9_755_JUSTAS]	2.02 ± 0.065 kcal/mol
SAGGVTTPVTFTVPPSLDPEEAAERIAKELEEELKAASNKKVKVTVESVTPLPDGTLRVTVVITTEPSAGGS [r8_156_JUSTAS]	3.76 ± 0.2 kcal/mol
SAGGSPFKKETFEFENVKVEVYRLPGPYALALLEVEVSGEPVYYVAVFKLGPDNKLEVVSFGPVDLSAGGSA [r2_171_TrMRF]	2.63 ± 0.054 kcal/mol
SAGMEEEVEERTLPDGSPVTVTTFTDPATGKRTVFVRYPETGEWEVRDEEGNLIKKYGPVSFEEAKKELSAG [r5_757_JUSTAS]	1.67 ± 0.024 kcal/mol
SAGGSAGGSPEAVVVQTPDGRWLVFLRGPDGSVRPIVVPAGRPEALREVAEELGLTVENLDPVSAGGSAGGS [r12_891_TrMRF]	1.83 ± 0.052 kcal/mol
SAGGKKVKVEKVATFELEDGSKITITTVTLPNGEKLVLIEITNPNGEKKTIVVSYEDLKEVLEALKKSAGGS [r16_588_TrROS_Hall]	2.51 ± 0.086 kcal/mol
MKIVEITKIEKKEDGTITITIKIEPVKKGEKLKIRIIHDGKIYEAEIDAESGTITITLPKNVKELKIYIYPS [r1_428_TrROS_Hall]	3.21 ± 0.25 kcal/mol
